Reference: the Immune Epitope Database (IEDB)

What was measured:
HLA-B*08:01 = experiment: IEDB peptide-MHC binding, purified MHC/competitive/radioactivity; filed as Kd, often an IC50 or EC50 that approximates it; ≥ and ≤ were set here for values at or beyond the usual limits of such assays
HLA-A*32:01 = experiment: as above
HLA-A*01:01 = experiment: as above
HLA-A*23:01 = experiment: as above
HLA-A*24:02 = experiment: as above
HLA-A*26:01 = experiment: as above
HLA-A*29:02 = experiment: as above
HLA-A*30:02 = experiment: as above
HLA-A*03:01 [1] = experiment: IEDB peptide-MHC binding, purified MHC/direct/fluorescence; filed as Kd, often an IC50 or EC50 that approximates it; ≥ and ≤ were set here for values at or beyond the usual limits of such assays
HLA-A*31:01 [2] = experiment: as above
HLA-B*44:02 = experiment: IEDB peptide-MHC binding, purified MHC/competitive/radioactivity; filed as Kd, often an IC50 or EC50 that approximates it; ≥ and ≤ were set here for values at or beyond the usual limits of such assays
HLA-B*44:03 = experiment: as above
HLA-B*27:05 = experiment: IEDB peptide-MHC binding, purified MHC/direct/fluorescence; filed as Kd, often an IC50 or EC50 that approximates it; ≥ and ≤ were set here for values at or beyond the usual limits of such assays; conditions: source organism: Mammarenavirus juninense
HLA-A*11:01 [3] = experiment: IEDB peptide-MHC binding, purified MHC/competitive/radioactivity; filed as Kd, often an IC50 or EC50 that approximates it; ≥ and ≤ were set here for values at or beyond the usual limits of such assays
HLA-A*03:01 [4] = experiment: as above; conditions: source organism: Triticum aestivum
HLA-A*31:01 [5] = experiment: as above; conditions: source organism: Triticum aestivum
HLA-A*33:01 = experiment: as above; conditions: source organism: Triticum aestivum
HLA-A*68:01 = experiment: as above; conditions: source organism: Triticum aestivum
HLA-A*30:01 = experiment: as above; conditions: source organism: Dengue virus 2 Jamaica/1409/1983
HLA-A*02:01 = experiment: IEDB peptide-MHC binding, purified MHC/direct/fluorescence; filed as Kd, often an IC50 or EC50 that approximates it; ≥ and ≤ were set here for values at or beyond the usual limits of such assays; conditions: source organism: Homo sapiens
HLA-A*11:01 [6] = experiment: as above; conditions: source organism: Homo sapiens
[7] = source organism: Dengue virus 1 Brazil/97-11/1997
[8] = source organism: Dengue virus 3 Martinique/1243/1999
[9] = source organism: SARS coronavirus Tor2
[10] = source organism: Dengue virus 1 Singapore/S275/1990
[11] = source organism: Francisella tularensis subsp. holarctica LVS
[12] = source organism: Vaccinia virus WR
[13] = source organism: Dengue virus 4 Philippines/H241/1956
[14] = source organism: Dengue virus 2 Jamaica/1409/1983
[15] = source organism: Mammarenavirus guanaritoense
[16] = source organism: Triticum aestivum

## LRAQNALDNL
HLA-B*08:01; [7]
  Kd: 1360 nM

## LRKLTSRENL
HLA-B*08:01; [8]
  Kd: 4950 nM

## LTIGVNYDI
HLA-A*32:01; source organism: Vaccinia virus Copenhagen
  Kd: 525 nM

## LTNSVIIMAY
HLA-A*01:01; [9]
  Kd: 98.1 nM
HLA-A*23:01; [9]
  Kd: ≥ 70000 nM
HLA-A*24:02; [9]
  Kd: ≥ 70300 nM
HLA-A*26:01; [9]
  Kd: 2000 nM
HLA-A*29:02; [9]
  Kd: 8.07 nM
HLA-A*30:02; [9]
  Kd: 49.1 nM

## LTSRENLLL
HLA-A*01:01; [8]
  Kd: 418 nM

## LWATLLSLTF
HLA-A*23:01; [10]
  Kd: 25.3 nM
HLA-A*24:02; [10]
  Kd: 193 nM

## MADQAMTQMY
HLA-A*01:01; [9]
  Kd: 18.4 nM
HLA-A*23:01; [9]
  Kd: ≥ 70000 nM
HLA-A*24:02; [9]
  Kd: ≥ 70300 nM
HLA-A*26:01; [9]
  Kd: 2830 nM
HLA-A*29:02; [9]
  Kd: 9.75 nM
HLA-A*30:02; [9]
  Kd: 127 nM

## MAGPLVAGGL
HLA-B*08:01; [8]
  Kd: 1070 nM

## MFMMIFHFV
HLA-A*03:01 [1]; [11]
  Kd: ≥ 20000 nM
HLA-A*31:01 [2]; [11]
  Kd: 12000 nM

## MIMYLVLGI
HLA-A*32:01; [12]
  Kd: 97.9 nM

## NARLKPLDI
HLA-B*08:01; [12]
  Kd: 0.813 nM

## NEELITEQM
HLA-B*44:02; [13]
  Kd: 281 nM

## NRRRRTAGM
HLA-B*08:01; source organism: Dengue virus 2 Peru/IQT2913/1996
  Kd: 98.9 nM

## NTNPIQLSSY
HLA-A*01:01; [9]
  Kd: 105 nM
HLA-A*23:01; [9]
  Kd: ≥ 70000 nM
HLA-A*24:02; [9]
  Kd: ≥ 70300 nM
HLA-A*26:01; [9]
  Kd: 344 nM
HLA-A*29:02; [9]
  Kd: 966 nM
HLA-A*30:02; [9]
  Kd: 74.2 nM

## NVHTWTEQY
HLA-A*01:01; [14]
  Kd: 6040 nM

## NWASVKKDLI
HLA-A*23:01; [8]
  Kd: 287 nM

## NYTQHTSSM
HLA-A*01:01; [9]
  Kd: ≥ 57000 nM
HLA-A*23:01; [9]
  Kd: ≥ 81700 nM
HLA-A*24:02; [9]
  Kd: ≥ 91800 nM
HLA-A*26:01; [9]
  Kd: 16300 nM
HLA-A*29:02; [9]
  Kd: ≥ 45200 nM
HLA-A*30:02; [9]
  Kd: ≥ 81100 nM

## PSVEVKLPDY
HLA-A*01:01; [13]
  Kd: 7510 nM
HLA-A*30:02; [13]
  Kd: 162 nM

## REDLWCGSLI
HLA-B*44:02; [13]
  Kd: 256 nM
HLA-B*44:03; [13]
  Kd: 401 nM

## RFFLPIFSEF
HLA-A*23:01; [15]
  Kd: 0.232 nM
HLA-A*24:02; [15]
  Kd: 10.2 nM
HLA-A*29:02; [15]
  Kd: 1.03 nM

## RFLEFEALGF
HLA-A*23:01; [13]
  Kd: 1.44 nM

## RGEDGCWYGM
HLA-A*32:01; [14]
  Kd: 11000 nM

## RKDIQQWEPS
HLA-A*32:01; [14]
  Kd: 3870 nM

## RLANNKVTI
HLA-A*32:01; [12]
  Kd: 1.54 nM

## RLINNRVLF
HLA-A*32:01; [12]
  Kd: 5.67 nM

## RRDLKLVDV
HLA-B*27:05
  Kd: ≥ 20000 nM

## RSFEIINVL
HLA-A*32:01; [12]
  Kd: 2.9 nM

## SALTLHWFRK
HLA-A*11:01 [3]; [13]
  Kd: 18.4 nM
HLA-A*32:01; [13]
  Kd: 1940 nM

## SDMQKFTIL
HLA-B*08:01; [12]
  Kd: 40.9 nM

## SEMAEALKG
HLA-B*44:02; [7]
  Kd: 14.5 nM

## SQHQHLAIM
HLA-B*08:01; [12]
  Kd: 142 nM

## SSQVLQQSTY
HLA-A*03:01 [4]
  Kd: 13500 nM
HLA-A*11:01 [3]; [16]
  Kd: 2540 nM
HLA-A*23:01; [16]
  Kd: ≥ 41500 nM
HLA-A*24:02; [16]
  Kd: ≥ 42300 nM
HLA-A*26:01; [16]
  Kd: 4630 nM
HLA-A*29:02; [16]
  Kd: 2990 nM
HLA-A*30:02; [16]
  Kd: 588 nM
HLA-A*31:01 [5]
  Kd: 9000 nM
HLA-A*33:01
  Kd: 19000 nM
HLA-A*68:01
  Kd: 9510 nM

## SYLRKFSAL
HLA-B*08:01; [12]
  Kd: 5.98 nM

## TDSPETHHY
HLA-A*01:01; [15]
  Kd: 16800 nM
HLA-A*23:01; [15]
  Kd: ≥ 77700 nM
HLA-A*24:02; [15]
  Kd: ≥ 77500 nM
HLA-A*26:01; [15]
  Kd: ≥ 77900 nM
HLA-A*29:02; [15]
  Kd: ≥ 78900 nM
HLA-A*30:02; [15]
  Kd: 9320 nM

## TNEVHTWTEQ
HLA-A*32:01; [7]
  Kd: 5360 nM

## TPMLRHTIE
HLA-B*08:01; [8]
  Kd: 3.36 nM

## TSKKRSWPLN
HLA-A*30:01
  Kd: 4530 nM
HLA-A*32:01; [14]
  Kd: ≥ 38600 nM

## TWAFCEVLTL
HLA-A*23:01; [13]
  Kd: 237 nM
HLA-A*24:02; [13]
  Kd: 2230 nM

## TYQNKVVKVL
HLA-B*08:01; [13]
  Kd: 155 nM

## VEGVSGGAW
HLA-B*44:02; [13]
  Kd: 151 nM
HLA-B*44:03; [13]
  Kd: 114 nM

## VEGVSGGSW
HLA-B*44:02; [14]
  Kd: 220 nM
HLA-B*44:03; [14]
  Kd: 111 nM

## VIWILIVAI
HLA-A*32:01; [12]
  Kd: 198 nM

## VLLSKRPSL
HLA-B*08:01; [12]
  Kd: 78 nM

## VTDKEKPVNI
HLA-A*01:01; [7]
  Kd: 15500 nM

## WHLGKLEMDF
HLA-A*23:01; [14]
  Kd: 1880 nM

## YLGSWATGK
HLA-A*02:01
  Kd: 15800 nM
HLA-A*03:01 [1]; source organism: Homo sapiens
  Kd: 257 nM
HLA-A*11:01 [6]
  Kd: 1440 nM
HLA-A*31:01 [2]; source organism: Homo sapiens
  Kd: 1960 nM

## YWVSCGTGNI
HLA-A*23:01; [7]
  Kd: 165 nM

## YYMATLKNV
HLA-A*23:01; [13]
  Kd: 319 nM
HLA-A*24:02; [13]
  Kd: 74.2 nM
